# Data taken from publication PMC12529666, “Dysregulation of AGO2-miRNA dynamics underlies the AGO2-associated Lessel–Kreienkamp syndrome”.
# B1: miR-122 guide / seed-matched target RNA (dsRNA)
# RNA 1: UGGAGUGUGACAAUGGUGUUUG
# RNA 2: AAAAAAAAAAAAACACUCCUAA
# modifications: 5' phosphate on guide
# B2: miR-122 guide / biotinylated capture oligo (DNA:RNA)
# RNA: UGGAGUGUGACAAUGGUGUUUG
# DNA: TCTCGTCTAACCATGCCAACACTCCAACTCT
# modifications: 5' phosphate on guide
# Assays:
# AGO2 T357M [1] = biological target: T1, AGO2 T357M (Homo sapiens, UniProt Q9UKV8 1-859, T357M;S387D;S824A;S828D;S831D;S834A); assay: filter binding; 2 mM Mg2+; 30 mM Tris pH 8.0, 100 mM KOAc, 2 mM MgOAc, 0.5 mM TCEP, 0.005% NP-40, 0.01 mg/ml yeast tRNA, room temperature, 2 h (equilibrium); association buffer listed without Mg; details: protein: recombinant; tags: His6 (N-terminal, pFastBac HTA); label: 32P 5' on target; guide g2-g8 paired with target ACACUCC; remainder unpaired
# AGO2 A367P [2] = biological target: T2, AGO2 A367P (Homo sapiens, UniProt Q9UKV8 1-859, A367P;S387D;S824A;S828D;S831D;S834A); assay: filter binding (association); AGO2-miR-122 0.25-1.5 nM; 30 mM Tris pH 8.0, 100 mM KOAc, 2 mM MgOAc, 0.5 mM TCEP, 0.005% NP-40, 0.01 mg/ml yeast tRNA, room temperature, 2 h (equilibrium); association buffer listed without Mg; details: protein: recombinant; tags: His6 (N-terminal, pFastBac HTA); label: 32P 5' on target; guide g2-g8 paired with target ACACUCC; remainder unpaired
# AGO2 L192P [3] = biological target: T3, AGO2 L192P (Homo sapiens, UniProt Q9UKV8 1-859, L192P;S387D;S824A;S828D;S831D;S834A); assay: as above; details: protein: recombinant; tags: His6 (N-terminal, pFastBac HTA); label: 32P 5' on target; guide g2-g8 paired with target ACACUCC; remainder unpaired
# AGO2 A367P [4] = biological target: T2, AGO2 A367P; assay: filter binding (dissociation); 300 nM unlabeled target chase; 30 mM Tris pH 8.0, 100 mM KOAc, 2 mM MgOAc, 0.5 mM TCEP, 0.005% NP-40, 0.01 mg/ml yeast tRNA, room temperature, 2 h (equilibrium); association buffer listed without Mg; details: protein: recombinant; tags: His6 (N-terminal, pFastBac HTA); label: 32P 5' on target; guide g2-g8 paired with target ACACUCC; remainder unpaired
# AGO2 T357M [5] = biological target: T1, AGO2 T357M; assay: as above; details: protein: recombinant; tags: His6 (N-terminal, pFastBac HTA); label: 32P 5' on target; guide g2-g8 paired with target ACACUCC; remainder unpaired
# AGO2 L192P [6] = biological target: T3, AGO2 L192P; assay: filter binding (dissociation); 300 nM unlabeled target chase; slowest release; 30 mM Tris pH 8.0, 100 mM KOAc, 2 mM MgOAc, 0.5 mM TCEP, 0.005% NP-40, 0.01 mg/ml yeast tRNA, room temperature, 2 h (equilibrium); association buffer listed without Mg; details: protein: recombinant; tags: His6 (N-terminal, pFastBac HTA); label: 32P 5' on target; guide g2-g8 paired with target ACACUCC; remainder unpaired
# AGO2 A367P [7] = biological target: T2, AGO2 A367P; assay: pull-down; recovery similar to WT; 30 mM Tris pH 8.0, 100 mM KOAc, 2 mM MgOAc, 0.5 mM TCEP, 0.005% NP-40, 0.01 mg/ml yeast tRNA, room temperature, 2 h (equilibrium); association buffer listed without Mg; details: protein: recombinant; tags: His6 (N-terminal, pFastBac HTA); label: biotin on capture oligo; guide paired in part with capture oligo
# AGO2 L192P [8] = biological target: T3, AGO2 L192P; assay: as above; details: protein: recombinant; tags: His6 (N-terminal, pFastBac HTA); label: biotin on capture oligo; guide paired in part with capture oligo
# AGO2 F182del [9] = biological target: T4, AGO2 F182del (Homo sapiens, UniProt Q9UKV8 1-859, S387D;S824A;S828D;S831D;S834A;del182-182); assay: as above; details: protein: recombinant; tags: His6 (N-terminal, pFastBac HTA); label: biotin on capture oligo; guide paired in part with capture oligo
# AGO2 T357M [10] = biological target: T1, AGO2 T357M; assay: as above; details: protein: recombinant; tags: His6 (N-terminal, pFastBac HTA); label: biotin on capture oligo; guide paired in part with capture oligo
# AGO2 A367P [11] = biological target: T2, AGO2 A367P; assay: northern blot of purified complex; ~1:1 AGO2:miR-122; 30 mM Tris pH 8.0, 100 mM KOAc, 2 mM MgOAc, 0.5 mM TCEP, 0.005% NP-40, 0.01 mg/ml yeast tRNA, room temperature, 2 h (equilibrium); association buffer listed without Mg; details: protein: recombinant; tags: His6 (N-terminal, pFastBac HTA)
# AGO2 L192P [12] = biological target: T3, AGO2 L192P; assay: as above; details: protein: recombinant; tags: His6 (N-terminal, pFastBac HTA)
# AGO2 F182del [13] = biological target: T4, AGO2 F182del; assay: as above; details: protein: recombinant; tags: His6 (N-terminal, pFastBac HTA)
# AGO2 T357M [14] = biological target: T1, AGO2 T357M; assay: as above; details: protein: recombinant; tags: His6 (N-terminal, pFastBac HTA)
# T3 sequence (Q9UKV8 whole entry L192P/S387D/S824A/S828D/S831D/S834A): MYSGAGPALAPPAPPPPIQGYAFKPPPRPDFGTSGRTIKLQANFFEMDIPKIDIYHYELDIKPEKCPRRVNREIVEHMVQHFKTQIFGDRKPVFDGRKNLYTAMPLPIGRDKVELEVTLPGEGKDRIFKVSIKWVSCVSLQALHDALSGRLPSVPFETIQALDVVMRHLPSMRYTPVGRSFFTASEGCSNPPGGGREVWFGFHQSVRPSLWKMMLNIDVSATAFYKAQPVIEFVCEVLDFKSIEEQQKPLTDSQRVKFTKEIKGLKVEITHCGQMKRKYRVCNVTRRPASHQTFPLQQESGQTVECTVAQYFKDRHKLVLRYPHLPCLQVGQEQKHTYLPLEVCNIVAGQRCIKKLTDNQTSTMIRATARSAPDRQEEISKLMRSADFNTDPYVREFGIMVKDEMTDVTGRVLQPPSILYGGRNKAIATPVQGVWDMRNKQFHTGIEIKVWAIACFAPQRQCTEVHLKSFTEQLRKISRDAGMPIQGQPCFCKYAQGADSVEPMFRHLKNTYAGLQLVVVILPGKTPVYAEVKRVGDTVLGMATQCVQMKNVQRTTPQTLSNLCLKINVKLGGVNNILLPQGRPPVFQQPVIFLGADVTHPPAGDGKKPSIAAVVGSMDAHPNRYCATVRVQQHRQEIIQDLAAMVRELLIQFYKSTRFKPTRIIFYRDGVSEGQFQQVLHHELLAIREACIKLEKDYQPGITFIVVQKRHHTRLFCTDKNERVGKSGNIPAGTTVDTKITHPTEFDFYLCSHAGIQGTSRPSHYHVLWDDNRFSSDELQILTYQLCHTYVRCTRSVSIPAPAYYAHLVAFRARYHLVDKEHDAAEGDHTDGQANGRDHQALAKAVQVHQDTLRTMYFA
# T2 sequence (Q9UKV8 whole entry A367P/S387D/S824A/S828D/S831D/S834A): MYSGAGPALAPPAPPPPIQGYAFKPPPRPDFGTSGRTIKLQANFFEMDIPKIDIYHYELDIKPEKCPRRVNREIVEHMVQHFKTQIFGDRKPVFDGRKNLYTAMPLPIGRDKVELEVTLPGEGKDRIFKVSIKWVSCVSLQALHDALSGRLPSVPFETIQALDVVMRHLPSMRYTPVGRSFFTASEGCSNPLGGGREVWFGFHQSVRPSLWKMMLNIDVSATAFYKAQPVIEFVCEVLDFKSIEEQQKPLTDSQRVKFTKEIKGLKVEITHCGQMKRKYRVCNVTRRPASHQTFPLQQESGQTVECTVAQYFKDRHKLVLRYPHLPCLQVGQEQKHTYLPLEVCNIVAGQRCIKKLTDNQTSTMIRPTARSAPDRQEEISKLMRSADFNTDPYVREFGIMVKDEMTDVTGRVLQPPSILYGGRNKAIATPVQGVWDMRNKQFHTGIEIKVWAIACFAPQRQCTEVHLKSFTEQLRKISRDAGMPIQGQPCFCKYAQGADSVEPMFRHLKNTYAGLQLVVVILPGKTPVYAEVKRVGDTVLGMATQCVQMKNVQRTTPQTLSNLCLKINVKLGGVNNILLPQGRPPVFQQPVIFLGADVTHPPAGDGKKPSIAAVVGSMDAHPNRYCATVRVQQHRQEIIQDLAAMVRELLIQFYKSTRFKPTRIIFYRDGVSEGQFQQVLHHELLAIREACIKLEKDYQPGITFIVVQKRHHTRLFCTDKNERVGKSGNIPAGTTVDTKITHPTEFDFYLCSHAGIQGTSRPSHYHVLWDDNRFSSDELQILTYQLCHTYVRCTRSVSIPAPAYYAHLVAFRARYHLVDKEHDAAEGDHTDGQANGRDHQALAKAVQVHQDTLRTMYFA
# T1 sequence (Q9UKV8 whole entry T357M/S387D/S824A/S828D/S831D/S834A): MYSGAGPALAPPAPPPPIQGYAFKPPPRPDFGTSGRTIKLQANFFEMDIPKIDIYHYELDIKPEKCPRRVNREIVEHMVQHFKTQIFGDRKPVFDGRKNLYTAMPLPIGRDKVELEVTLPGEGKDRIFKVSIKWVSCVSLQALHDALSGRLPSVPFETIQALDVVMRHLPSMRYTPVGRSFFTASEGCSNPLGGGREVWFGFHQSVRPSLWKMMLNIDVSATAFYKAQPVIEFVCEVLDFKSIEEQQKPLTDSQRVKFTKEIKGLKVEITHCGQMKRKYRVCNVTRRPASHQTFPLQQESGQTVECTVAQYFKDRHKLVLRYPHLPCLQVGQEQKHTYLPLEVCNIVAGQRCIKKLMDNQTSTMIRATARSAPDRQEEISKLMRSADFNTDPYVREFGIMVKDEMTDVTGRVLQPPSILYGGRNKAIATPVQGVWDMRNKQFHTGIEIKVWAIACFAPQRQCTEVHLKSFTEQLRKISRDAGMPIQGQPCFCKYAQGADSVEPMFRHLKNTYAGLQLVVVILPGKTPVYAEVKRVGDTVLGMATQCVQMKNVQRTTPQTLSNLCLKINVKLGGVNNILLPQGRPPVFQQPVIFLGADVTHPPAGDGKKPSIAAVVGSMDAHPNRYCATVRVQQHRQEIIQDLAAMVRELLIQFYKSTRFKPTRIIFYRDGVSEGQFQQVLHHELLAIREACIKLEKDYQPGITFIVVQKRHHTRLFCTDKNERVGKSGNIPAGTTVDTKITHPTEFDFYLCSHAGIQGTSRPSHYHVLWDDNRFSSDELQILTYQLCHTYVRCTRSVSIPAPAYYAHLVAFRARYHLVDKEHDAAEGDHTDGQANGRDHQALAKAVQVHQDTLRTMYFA
# T4 sequence (Q9UKV8 other isoform, or with tags, fused parts or gaps S387D;S824A;S828D;S831D;S834A;del182-182): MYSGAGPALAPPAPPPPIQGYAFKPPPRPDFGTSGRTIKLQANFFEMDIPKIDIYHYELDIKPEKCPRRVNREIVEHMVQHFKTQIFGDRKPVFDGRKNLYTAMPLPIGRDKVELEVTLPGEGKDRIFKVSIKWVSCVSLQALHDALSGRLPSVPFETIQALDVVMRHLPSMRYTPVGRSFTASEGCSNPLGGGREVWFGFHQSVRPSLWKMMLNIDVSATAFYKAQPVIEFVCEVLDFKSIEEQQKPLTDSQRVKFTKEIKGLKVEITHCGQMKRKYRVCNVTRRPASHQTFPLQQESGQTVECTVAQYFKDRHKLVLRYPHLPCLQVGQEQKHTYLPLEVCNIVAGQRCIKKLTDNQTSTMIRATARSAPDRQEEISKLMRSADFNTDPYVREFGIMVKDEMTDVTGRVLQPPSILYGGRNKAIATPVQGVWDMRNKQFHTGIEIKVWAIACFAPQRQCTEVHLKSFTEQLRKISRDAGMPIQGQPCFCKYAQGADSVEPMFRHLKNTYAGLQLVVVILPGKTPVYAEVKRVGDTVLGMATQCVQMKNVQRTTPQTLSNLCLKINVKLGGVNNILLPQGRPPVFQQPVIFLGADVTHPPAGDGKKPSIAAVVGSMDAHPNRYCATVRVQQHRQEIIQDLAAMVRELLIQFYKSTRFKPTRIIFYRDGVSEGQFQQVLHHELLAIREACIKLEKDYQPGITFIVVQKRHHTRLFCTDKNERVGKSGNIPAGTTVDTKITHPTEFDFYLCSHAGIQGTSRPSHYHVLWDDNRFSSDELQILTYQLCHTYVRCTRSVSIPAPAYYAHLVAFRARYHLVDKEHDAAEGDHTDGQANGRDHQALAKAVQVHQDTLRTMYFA
binder,measurement,setting,value
B1,binding signal,AGO2 T357M [1],1.8 fold lower KD than WT (not significant)
same,binding signal,AGO2 A367P [2],> 5 fold slower association than WT (at least)
same,binding signal,AGO2 L192P [3],> 5 fold slower association than WT (at least)
same,binding signal,AGO2 A367P [4],~20 fold slower koff (slow phase) vs near-WT fast phase
same,binding signal,AGO2 T357M [5],~20 fold slower koff (slow phase) vs near-WT fast phase
same,binding signal,AGO2 L192P [6],~20 fold slower koff (slow phase) vs near-WT fast phase
B2,binding result,AGO2 A367P [7],binds
same,binding result,AGO2 L192P [8],binds
same,binding result,AGO2 F182del [9],binds
same,binding result,AGO2 T357M [10],binds
"UGGAGUGUGACAAUGGUGUUUG (ssRNA, 5' phosphate) [miR-122 guide RNA]",binding result,AGO2 A367P [11],binds
same,binding result,AGO2 L192P [12],binds
same,binding result,AGO2 F182del [13],binds
same,binding result,AGO2 T357M [14],binds
